Substrate in this series: C[C@H](O)C(=O)O
In words: cells, lysate or membranes. The conditions noted are these: proton.

B1: Monocarboxylate transporter 1 (MCT1) (Mus musculus) (protein)
chain: MPPAIGGPVGYTPPDGGWGWAVLVGAFISIGFSYAFPKSITVFFKEIEVIFSATTSEVSWISSIMLAVMYAGGPISSILVNKYGSRPVMIAGGCLSGCGLIAASFCNTVQELYLCIGVIGGLGLAFNLNPALTMIGKYFYKKRPLANGLAMAGSPVFLSTLAPLNQAFFDIFDWRGSFLILGGLLLNCCVAGSLMRPIGPEQVKLEKLKSKESLQEAGKSDANTDLIGGSPKGEKLSVFQTINKFLDLSLFTHRGFLLYLSGNVVMFFGLFTPLVFLSSYGKSKDFSSEKSAFLLSILAFVDMVARPSMGLAANTKWIRPRIQYFFAASVVANGVCHLLAPLSTTYVGFCVYAGVFGFAFGWLSSVLFETLMDLIGPQRFSSAVGLVTIVECCPVLLGPPLLGRLNDMYGDYKYTYWACGVILIIAGIYLFIGMGINYRLLAKEQKAEEKQKREGKEDEASTDVDEKPKETMKAAQSPQQHSSGDPTEEESPV
Regarding B1, the Michaelis constant (Km) is on record as 3.88 ± 0.86 mM and the Vmax is 0.414 µmol/min/mg.

The Km is the substrate concentration at which the rate is half of its maximum. Broadly, the Vmax is the rate approached at saturating substrate.

Values taken from paper PMC6536115.
